Results on 27 sequences are retold here after article PMC3334620.

Series [1] concerns the target T1, Pdr3 (Saccharomyces cerevisiae) (UniProt P33200).
T1 sequence: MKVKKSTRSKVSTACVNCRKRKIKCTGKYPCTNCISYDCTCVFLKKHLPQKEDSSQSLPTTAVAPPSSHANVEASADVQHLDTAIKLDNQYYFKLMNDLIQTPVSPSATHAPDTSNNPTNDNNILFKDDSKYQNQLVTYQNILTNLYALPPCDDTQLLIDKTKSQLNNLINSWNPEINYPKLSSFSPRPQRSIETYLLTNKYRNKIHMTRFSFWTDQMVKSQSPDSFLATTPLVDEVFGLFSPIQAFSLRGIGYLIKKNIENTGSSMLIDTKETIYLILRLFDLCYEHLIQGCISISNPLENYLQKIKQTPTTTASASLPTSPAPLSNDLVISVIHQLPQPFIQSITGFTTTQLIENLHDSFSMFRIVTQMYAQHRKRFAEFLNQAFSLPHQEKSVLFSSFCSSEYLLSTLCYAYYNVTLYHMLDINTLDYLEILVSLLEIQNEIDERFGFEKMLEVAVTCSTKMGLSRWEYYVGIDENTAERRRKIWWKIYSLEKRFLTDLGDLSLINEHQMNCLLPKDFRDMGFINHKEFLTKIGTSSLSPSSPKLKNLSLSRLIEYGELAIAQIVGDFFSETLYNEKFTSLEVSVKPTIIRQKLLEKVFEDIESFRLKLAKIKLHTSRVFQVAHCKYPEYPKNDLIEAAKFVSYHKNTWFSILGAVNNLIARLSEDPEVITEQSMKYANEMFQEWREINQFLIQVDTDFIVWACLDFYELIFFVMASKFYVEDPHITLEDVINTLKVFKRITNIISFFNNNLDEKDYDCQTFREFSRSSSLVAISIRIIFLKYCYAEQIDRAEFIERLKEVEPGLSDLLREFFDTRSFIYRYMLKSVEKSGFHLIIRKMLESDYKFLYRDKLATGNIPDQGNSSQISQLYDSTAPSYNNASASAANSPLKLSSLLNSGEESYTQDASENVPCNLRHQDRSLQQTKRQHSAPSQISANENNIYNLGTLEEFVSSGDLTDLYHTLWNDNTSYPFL
The following applies: 200 nM.

Series [2] has as its target T2, Msn1 (Saccharomyces cerevisiae) (UniProt P22148).
T2 sequence: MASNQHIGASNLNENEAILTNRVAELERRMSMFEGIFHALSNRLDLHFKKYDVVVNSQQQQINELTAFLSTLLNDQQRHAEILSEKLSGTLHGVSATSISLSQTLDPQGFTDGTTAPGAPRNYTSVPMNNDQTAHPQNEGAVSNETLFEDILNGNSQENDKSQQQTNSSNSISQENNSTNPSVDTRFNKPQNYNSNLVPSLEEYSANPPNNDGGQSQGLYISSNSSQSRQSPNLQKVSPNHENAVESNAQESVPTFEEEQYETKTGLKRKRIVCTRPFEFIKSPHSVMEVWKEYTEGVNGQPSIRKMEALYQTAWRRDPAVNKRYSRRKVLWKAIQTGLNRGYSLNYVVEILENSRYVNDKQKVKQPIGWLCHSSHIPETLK
As to conditions: 200 nM.

As for “CCGCGGCA (double strand) [8-mer CCGCGGCA]”, the binding signal (PBM E-score (-0.5 to 0.5)) in series [1] amounted to 0.49. In turn, “ATGTCCTA (double strand) [8-mer ATGTCCTA]” came in with a binding signal (PBM E-score (-0.5 to 0.5)) in series [2] of 0.497. Still for that read-out and setting: next, “GGACAAAC (double strand) [8-mer GGACAAAC]”: 0.491. In series [2], “AAATGTCC (double strand) [8-mer AAATGTCC]” had a binding signal (PBM E-score (-0.5 to 0.5)) of 0.498. “TGGACAAA (double strand) [8-mer TGGACAAA]” gave a binding signal (PBM E-score (-0.5 to 0.5)) in series [2] of 0.493. Take “AGGACAAA (double strand) [8-mer AGGACAAA]”: the binding signal (PBM E-score (-0.5 to 0.5)) in series [2] was determined as 0.498. For the sequence “AATGTCCC (double strand) [8-mer AATGTCCC]”, in series [2], the binding signal (PBM E-score (-0.5 to 0.5)) amounted to 0.496. Sequence “AACGGAAC (double strand) [8-mer AACGGAAC]” displayed a binding signal (PBM E-score (-0.5 to 0.5)) in series [1] of 0.49. The same measure, in the same setting: under “GCCGCGGA (double strand) [8-mer GCCGCGGA]” stands 0.495. On to “AAAATGTC (double strand) [8-mer AAAATGTC]”, for which the binding signal (PBM E-score (-0.5 to 0.5)) in series [2] turned out to be 0.491. With “AATGTCCA (double strand) [8-mer AATGTCCA]”, the binding signal (PBM E-score (-0.5 to 0.5)) in series [2] was determined as 0.493. “CCCGCGGA (double strand) [8-mer CCCGCGGA]”: the binding signal (PBM E-score (-0.5 to 0.5)) in series [1] was found to be 0.498. “ATATGTCC (double strand) [8-mer ATATGTCC]” registered a binding signal (PBM E-score (-0.5 to 0.5)) in series [2] of 0.496.

For the sequence “CCCCGCGG (double strand) [8-mer CCCCGCGG]”, the binding signal (PBM E-score (-0.5 to 0.5)) in series [1] worked out at 0.492. For “ATTTGTCC (double strand) [8-mer ATTTGTCC]”, the binding signal (PBM E-score (-0.5 to 0.5)) in series [2] stood at 0.498. In turn, “ATCCGCGG (double strand) [8-mer ATCCGCGG]” showed a binding signal (PBM E-score (-0.5 to 0.5)) in series [1] of 0.496. “CCGCGGAA (double strand) [8-mer CCGCGGAA]”: the binding signal (PBM E-score (-0.5 to 0.5)) in series [1] amounted to 0.499.

In series [1], “CCGCGGAC (double strand) [8-mer CCGCGGAC]” gave a binding signal (PBM E-score (-0.5 to 0.5)) of 0.495. “GGGACAAA (double strand) [8-mer GGGACAAA]”: the binding signal (PBM E-score (-0.5 to 0.5)) in series [2] stood at 0.496. In series [2], “GGACAAAA (double strand) [8-mer GGACAAAA]” yielded a binding signal (PBM E-score (-0.5 to 0.5)) of 0.494. In series [1], “CGCGGAAC (double strand) [8-mer CGCGGAAC]” displayed a binding signal (PBM E-score (-0.5 to 0.5)) of 0.491. In series [1], “CCGCGGGA (double strand) [8-mer CCGCGGGA]” showed a binding signal (PBM E-score (-0.5 to 0.5)) of 0.499. “CCCGCGGG (double strand) [8-mer CCCGCGGG]” had a binding signal (PBM E-score (-0.5 to 0.5)) in series [1] of 0.498. The same measure, in the same setting: under “ACCCGCGG (double strand) [8-mer ACCCGCGG]” stands 0.497. Sequence “AATGTCCT (double strand) [8-mer AATGTCCT]” registered a binding signal (PBM E-score (-0.5 to 0.5)) in series [2] of 0.496. “CCGCGGAG (double strand) [8-mer CCGCGGAG]”: the binding signal (PBM E-score (-0.5 to 0.5)) in series [1] turned out to be 0.498. In turn, “AGGACATA (double strand) [8-mer AGGACATA]” yielded a binding signal (PBM E-score (-0.5 to 0.5)) in series [2] of 0.494.
